Biological target: T1, CD20 on human B-cell lines (JOK-1, Raji, Ramos) (human, UniProt P11836 1-297)
T1 sequence (looked up): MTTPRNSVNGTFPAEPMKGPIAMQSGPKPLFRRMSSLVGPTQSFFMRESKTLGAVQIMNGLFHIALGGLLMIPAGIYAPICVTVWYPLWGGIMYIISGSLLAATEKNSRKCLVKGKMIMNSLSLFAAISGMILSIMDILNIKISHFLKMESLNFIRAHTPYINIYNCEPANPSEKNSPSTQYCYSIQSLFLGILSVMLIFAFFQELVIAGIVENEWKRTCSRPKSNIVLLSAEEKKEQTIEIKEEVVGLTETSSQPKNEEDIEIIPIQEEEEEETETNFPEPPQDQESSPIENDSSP
Assay: cell-based or functional assay

percent of apoptotic cells against chRituximab, Raji cells, 5 µg/mL: 2.5 fold
B1: chRituximab-HD (chimeric HD antibody identical to chRituximab except for the addition of the HD peptide rs-T15) (antibody, human IgG1, kappa)
heavy: not shown
light: QIVLSQSPAILSASPGEKVTMTCRASSSVSYIHWFQQKPGSSPKPWIYATSNLASGVPVRFSGSGSGTSYSLTISRVEAEDAATYYCQQWTSNPPTFGGGTKLEIKRTVAAPSVFIFPPSDEQLKSGTASVVCLLNNFYPREAKVQWKVDNALQSGNSQESVTEQDSKDSTYSLSSTLTLSKADYEKHKVYACEVTHQGLSSPVTKSFNRGEC
